Data: the supplement of paper PMC7125110
± gives the standard error. Fewer inactive variants are shown than the library holds.

B1: glmS ribozyme (parent)
chain: AUAAAAGCGCCAGAACUACAGAAAUGUAGUUGACGAGGAGGAGGUUUAUCGAAUUUUCGGCGGAUGCCUCCAAA

What was measured:
Conditions in all cases: with glucosamine-6-phosphate
glucosamine-6-phosphate [1] = variants of: B1; test: self-cleavage kobs at 40 uM GlcN6P; higher = faster cleavage; RNA array
Summary of the method: (§1)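 In situ transcription by E. coli RNA polymerase produced barcoded ribozyme variants on sequenced MiSeq chips, and a hybridised Cy3 probe tracked them at 37 °C. Glucosamine-6-phosphate was flowed in at 40 μM to 10 mM in HEPES/KCl/Mg(OAc)2 buffer. kcat and KM were taken from weighted Michaelis–Menten fits of kobs values from exponential decay fits.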

glucosamine-6-phosphate [2] = variants of: B1; test: self-cleavage kobs at 10000 uM GlcN6P; higher = faster cleavage; RNA array
Summary of the method: as §1

glucosamine-6-phosphate [3] = variants of: B1; test: self-cleavage kobs at 640 uM GlcN6P; higher = faster cleavage; RNA array
Summary of the method: as §1

glucosamine-6-phosphate [4] = variants of: B1; test: self-cleavage kobs at 2500 uM GlcN6P; higher = faster cleavage; RNA array
Summary of the method: as §1

glucosamine-6-phosphate [5] = variants of: B1; test: self-cleavage kobs at 160 uM GlcN6P; higher = faster cleavage; RNA array
Summary of the method: as §1

Variant | self-cleavage kobs at 40 uM GlcN6P (glucosamine-6-phosphate [1]) [s⁻¹] | self-cleavage kobs at 10000 uM GlcN6P (glucosamine-6-phosphate [2]) [s⁻¹] | self-cleavage kobs at 640 uM GlcN6P (glucosamine-6-phosphate [3]) [s⁻¹] | self-cleavage kobs at 2500 uM GlcN6P (glucosamine-6-phosphate [4]) [s⁻¹] | self-cleavage kobs at 160 uM GlcN6P (glucosamine-6-phosphate [5]) [s⁻¹]
A15G A42G C68U | 0.000393 ± 0.00011 | 0.0101 ± 0.0045 |  |  | 
A15C G37C G40A G43U | < 1e-05 | < 1e-05 |  |  | 
G29A U47G | 2.24e-05 ± 1.1e-05 | 0.000713 ± 0.00011 | 0.000161 ± 6.4e-05 |  | 
U30C C50A U65A U69G | 4.39e-05 ± 1.7e-05 | 3.19e-05 ± 1.6e-05 | 0.000207 ± 5.3e-05 | 5.84e-05 ± 2.3e-05 | 
G13A A36G C50G G66C | 0.000105 ± 3.1e-05 |  |  |  | 
A15U A33C A36C G37U G40C C58U | < 1e-05 | < 1e-05 |  |  | 
A14C G35U | < 1e-05 | < 1e-05 |  | < 1e-05 | < 1e-05
G13U C50G C61G G62A U65G C68U | 9.2e-05 ± 3.1e-05 | 3.93e-05 ± 1.7e-05 |  |  | 
A15C G44U C61G C67G | < 1e-05 | < 1e-05 | < 1e-05 | < 1e-05 | 
G13C C61A C71U | < 1e-05 |  |  |  | 
G13U G32U A36G G38C U54G | < 1e-05 |  |  |  | 
C16G A48G C68U | < 1e-05 | < 1e-05 |  |  | 
A15C G32U A42U | < 1e-05 | < 1e-05 |  |  | 
G13A A36G | < 1e-05 | < 1e-05 | < 1e-05 | < 1e-05 | < 1e-05
G29C A36U A39G G63U | < 1e-05 | < 1e-05 |  |  | 
C19A G43U | < 1e-05 |  | < 1e-05 |  | 
A14G G32C U49A | < 1e-05 | < 1e-05 |  |  | 
G29C G60U C61A | < 1e-05 |  | < 1e-05 |  | 
U30C A36C U69G | 0.000181 ± 7.1e-05 |  | 0.000264 ± 0.00013 |  | 
C16G C34U G59A G60U | < 1e-05 |  |  |  | 
U30G A48C C70G | < 1e-05 |  |  |  | 
G29C A42C | < 1e-05 | < 1e-05 | < 1e-05 | < 1e-05 | 
U30C A42U G44A A48G G59A | < 1e-05 |  |  | < 1e-05 | 
C16A G44C | < 1e-05 | < 1e-05 | < 1e-05 |  | < 1e-05
A14U G62C | < 1e-05 |  |  | < 1e-05 | 
G29A G38U A39G C58A G66A | < 1e-05 |  |  |  | 

Variant | self-cleavage kobs at 40 uM GlcN6P (glucosamine-6-phosphate [1]) [s⁻¹] | self-cleavage kobs at 10000 uM GlcN6P (glucosamine-6-phosphate [2]) [s⁻¹] | self-cleavage kobs at 640 uM GlcN6P (glucosamine-6-phosphate [3]) [s⁻¹] | self-cleavage kobs at 2500 uM GlcN6P (glucosamine-6-phosphate [4]) [s⁻¹] | self-cleavage kobs at 160 uM GlcN6P (glucosamine-6-phosphate [5]) [s⁻¹]
U31A G43U | < 1e-05 |  |  |  | < 1e-05
U30C U47C C58A U65A | < 1e-05 |  |  |  | 
U31A G37A C50G A53U C67U | 5.38e-05 ± 1.9e-05 |  |  |  | 
G13C G51A | < 1e-05 | < 1e-05 |  | < 1e-05 | 
G29C C50G | 5.44e-05 ± 1.3e-05 | 2.54e-05 ± 1.1e-05 | 0.000208 ± 4.9e-05 | 0.000178 ± 3.6e-05 | 0.000194 ± 5.9e-05
A15G G44U G51C A52G U56G | < 1e-05 |  | < 1e-05 |  | < 1e-05
A14C C70U | 0.000159 ± 1.4e-05 | 0.00953 ± 0.0013 | 0.000897 ± 9.5e-05 | 0.00439 ± 0.0007 | 0.000308 ± 3.9e-05
G29U U54G C58U U69G | 6.42e-05 ± 2.3e-05 |  |  |  | 
C16U U30A G37A G40U U65A | < 1e-05 | < 1e-05 |  |  | 
C16A A42U | < 1e-05 |  |  |  | < 1e-05
A15C A39G | 0.000398 ± 9.2e-05 | 0.013 ± 0.0025 | 0.00224 ± 0.00049 | 0.00476 ± 0.0014 | 
A15U C34A A64U C68A | < 1e-05 | < 1e-05 |  |  | 
A14G G21U C67U | 0.000937 ± 0.00021 |  |  |  | 
A14G A15U G37A | 4.55e-05 ± 1.5e-05 | 0.00249 ± 0.00037 |  |  | 
A14G U31A A36U A64G | < 1e-05 |  |  |  | 
C16A C34U | < 1e-05 |  | < 1e-05 | < 1e-05 | < 1e-05
C16A C34A | < 1e-05 | < 1e-05 | < 1e-05 | < 1e-05 | < 1e-05
G29U G44C U46A | < 1e-05 |  |  |  | 
G13A G43C U65G | < 1e-05 |  |  | < 1e-05 | 
A14U G37U G59U C61A | < 1e-05 |  |  |  | 
A14U U55G C58U G66U C67G | 0.00272 ± 0.001 |  |  |  | 
A14C G29U C50G | 0.000119 ± 3.7e-05 |  |  |  | 
A14G U54A | 0.00167 ± 0.00022 | 0.103 ± 0.048 | 0.027 ± 0.0081 | 0.0173 ± 0.0047 | 0.00342 ± 0.0007
G29C U45A | 7.41e-05 ± 2.6e-05 | 0.00281 ± 0.00086 | 0.000828 ± 0.00023 | 0.000499 ± 0.00024 | 
A15U G43U U54C G60C C70G | < 1e-05 | < 1e-05 |  |  | 
A14C G43C | < 1e-05 |  | < 1e-05 | < 1e-05 | 
